{"source": "patent US20240376556", "about": "“BIOSENSORS FOR DETECTING AND/OR NEUTRALIZING BIOAVAILABLE URANIUM AND RELATED U-SENSITIVE GENETIC MOLECULAR COMPONENTS, GENE CASSETTES, VECTORS, GENETIC CIRCUITS, COMPOSITIONS, METHODS AND SYSTEMS” (LAWRENCE LIVERMORE NATIONAL SECURITY, LLC, published 2024)", "biological_target": "T1, UrpR (CCNA_01362), native in cells (Caulobacter crescentus NA1000)", "T1 chain": "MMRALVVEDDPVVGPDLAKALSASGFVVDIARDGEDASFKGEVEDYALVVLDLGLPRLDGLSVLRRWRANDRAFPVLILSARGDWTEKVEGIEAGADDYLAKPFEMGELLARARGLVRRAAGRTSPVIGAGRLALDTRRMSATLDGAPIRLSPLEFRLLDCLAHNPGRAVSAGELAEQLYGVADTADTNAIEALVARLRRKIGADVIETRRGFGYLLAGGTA", "test": "cell_activity; P1361-gfp induction in wild type with 20 uM U; U induction abolished by CCNA_01362 deletion"}
{"binder": "P1361 promoter (dsDNA) DNA 1: GAACGATAGCGCCGCCTGCGAGCGCGACCTCAGGCCTCGGACGAAGCGCGTCCGGGGCCTTTTCTTGTCGATGTTCAGCGCCTGGTTACCGGCGATGGCGCGGTGTCAGCGTTCGGGCGTTGCGATGCGTCAGGAGCGTGTCAGGATGCCTGTGGAATCCTAAGCGCCATCACCCAGTCCCGATCTTTCC DNA 2: GGAAAGATCGGGACTGGGTGATGGCGCTTAGGATTCCACAGGCATCCTGACACGCTCCTGACGCATCGCAACGCCCGAACGCTGACACCGCGCCATCGCCGGTAACCAGGCGCTGAACATCGACAAGAAAAGGCCCCGGACGCGCTTCGTCCGAGGCCTGAGGTCGCGCTCGCAGGCGGCGCTATCGTTC", "values": [{"measurement": "activity", "result": 10.5, "unit": "fold"}]}
